Laboratory results: patent publication US7750123B2

Substrate: S protein of GD03T on pseudotyped HIV virus (SARS-CoV (GD03T0013 isolate))

B1: 80R IgG1 (antibody, V domains shown)
VH: EVQLVQSGGGVVQPGKSLRLSCAASGFAFSSYAMHWVRQAPGKGLEWVAVISYDGSNKYYADSVKGRFTISRDNSKNTLYLQMNSLRAEDTAVYYCARDRSYYLDYWGQGTLVTVSS
VL: ETTLTQSPATLSLSPGERATLSCRASQSVRSNLAWYQQKPGQAPRPLIYDASTRATGIPDRFSGSGSGTDFTLTISRLEPEDFAVYYCQQRSNWPPTFGQGTKVEVK
inhibition of pseudoviral infection of ACE2-expressing 293T cells (luciferase): > 50 µg/mL
